Each block holds one binder with its values, some of them ahead of it. No end group written: not given here.
Columns and labels:
[1] = biological target: T1, human ChemerinR (human, UniProt Q99788 3-373); assay: cell-based or functional assay
T1 sequence: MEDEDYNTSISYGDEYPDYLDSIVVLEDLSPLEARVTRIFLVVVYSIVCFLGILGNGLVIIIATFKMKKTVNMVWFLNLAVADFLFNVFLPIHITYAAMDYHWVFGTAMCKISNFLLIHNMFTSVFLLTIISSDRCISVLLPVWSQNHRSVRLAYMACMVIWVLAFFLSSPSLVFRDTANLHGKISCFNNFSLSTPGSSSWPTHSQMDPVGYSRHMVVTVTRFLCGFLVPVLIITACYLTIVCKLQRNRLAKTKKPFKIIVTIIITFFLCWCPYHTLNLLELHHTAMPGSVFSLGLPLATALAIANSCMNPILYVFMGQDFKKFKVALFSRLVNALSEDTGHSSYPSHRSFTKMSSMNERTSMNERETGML

[2] = biological target: T1, human ChemerinR; assay: cell-based or functional assay; remark: listed apart in the source
[3] = biological target: T1, human ChemerinR; assay: competition binding on ChemerinR-expressing CHO-K1 cells; tracer (competed ligand) 125I-…
Experimental: (§1) ChemerinR expressing CHO-K1 cells were collected from plates with PBS supplemented with 5 mM EDTA, gently pelleted for 2 min at 1000×g, and resuspended in binding buffer (50 mM HEPES, pH 7.4, 1 mM CaCl₂, 5 mM MgCl₂, 0.5% BSA). […] Filters were counted in a […]-scintillation counter. Binding parameters were determined with the PRISM software (Graphpad Software) using nonlinear regression applied to a one-site competition model.

[4] = biological target: T1, human ChemerinR; assay: competition binding on ChemerinR-expressing CHO-K1 cells, tracer 125I-…, one-site model, 3 experiments
Experimental: as §1

Binder: YAPGQFAFS [Human [Ala-2]Chemerin-9]
Mean EC50, intracellular calcium release (aequorin assay) [1]: 0.155 µM

Binder: QRAGEDPHSFYFPGQFA [Human [delta-Phe18Ser19]Chemerin-19]
Mean EC50, intracellular calcium release (aequorin assay) [1]: 220 µM

Binder: FYFPGQFAFS [Human Chemerin-10]
Mean EC50, intracellular calcium release (aequorin assay) [1]: 0.0082 µM

Binder: AFPGQFAFS [Human [Ala-1]Chemerin-9]
Mean EC50, intracellular calcium release (aequorin assay) [1]: 0.496 µM

Binder: PGQFAFS [Human Chemerin-7]
Mean EC50, intracellular calcium release (aequorin assay) [1]: 220 µM

Binder: QRAGEDPHSFYFPGQFAFS [Human Chemerin-19]
Mean EC50, intracellular calcium release (aequorin assay) [1]: 0.0167 µM

Binder: YFPGQFAAS [Human [Ala-8]Chemerin-9]
Mean EC50, intracellular calcium release (aequorin assay) [1]: 38 µM

Binder: QRAGEDPHSFYFPGQFAFSK [Human [Lys20]Chemerin-19]
Mean EC50, intracellular calcium release (aequorin assay) [1]: 170 µM

Binder: QRAGEDPHSFYFPGQFAFSKALPRS [Human prochemerin-25]
Mean EC50, intracellular calcium release (aequorin assay) [1]: 160 µM

Binder: FPGQFAFS [Human Chemerin-8]
Mean EC50, intracellular calcium release (aequorin assay) [1]: 2 µM

Further lines, results first:

Mean EC50, intracellular calcium release (aequorin assay) [1]: 130 µM
Binder: QRAGEDPHSFYFPGQF [Human [delta-Ala17Phe18Ser19]Chemerin-19]

Mean EC50, intracellular calcium release (aequorin assay) [1]: 5 µM
Binder: YFPGQAAFS [Human [Ala-6]Chemerin-9]

EC50, biological activity on CHO-K1 cells expressing human ChemerinR (aequorin assay) [2]: 393 nM
B1: human Prochemerin (recombinant, unprocessed) (ligand)
chain: ELTEAQRRGLQVALEEFHKHPPVQWAFQETSVESAVDTPFPAGIFVRLEFKLQQTSCRKRDWKKPECKVRPNGRKRKCLACIKLGSEDKVLGRLVHCPIETQVLREAEEHQETQCLRVQRAGEDPHSFYFPGQFAFSKALPRS

Mean EC50, intracellular calcium release (aequorin assay) [1]: 0.014 µM
Binder: PHSFYFPGQFAFS (not fully specified) [Human Chemerin-13]

EC50, aequorin-based assay [2]: 28 nM
IC50 (read off the curve) [3]: ~20 nM
Ki [4]: 12.1 nM
pKi [4]: 7.95
B2: YHSFFFPGQFAFS peptide (unlabeled) (peptide)
peptide: YHSFFFPGQFAFS
notes: also called unlabeled peptide; unlabel peptide

Mean EC50, intracellular calcium release (aequorin assay) [1]: 0.0122 µM
Binder: HSFYFPGQFAFS [Human Chemerin-12]

Mean EC50, intracellular calcium release (aequorin assay) [1]: 0.097 µM
Binder: QRAGEDPHSFYFPGQFAF [Human [delta-Ser19]Chemerin-19]
